This note sets out measurements from patent publication US20260242436A1 (HANMI PHARM, published 2026).

Experiment [1] addresses T1, interleukin-2 beta receptor (SYMANSIS, #4122H) to which a human immunoglobulin Fc region was linked (UniProt P14784 27-239, limits assumed).
T1 construct: Bought receptor-Fc, captured on anti-human immunoglobulin antibody; also called IL-2Rβ; CD122; not shown: human immunoglobulin Fc region
T1 sequence (looked up): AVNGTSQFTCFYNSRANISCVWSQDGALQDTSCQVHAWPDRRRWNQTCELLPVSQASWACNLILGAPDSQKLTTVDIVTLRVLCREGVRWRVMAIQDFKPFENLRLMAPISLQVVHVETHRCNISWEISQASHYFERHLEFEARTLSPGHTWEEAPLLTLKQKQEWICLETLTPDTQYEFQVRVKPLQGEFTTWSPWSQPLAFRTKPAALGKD
Description: SPR (Biacore T200); receptor-Fc captured on anti-human Ig CM5 chip, analog flowed; relative to analog 1 = 100%. As for the experimental part: (§1) In order to measure the binding affinities of the interleukin-2 analogs obtained in Example 4 for each of interleukin-2 alpha and beta receptors, surface plasmon resonance (SPR, BIACORE T200, GE Healthcare) was used. The binding affinities of the prepared analogs for the alpha and beta receptors were measured, and the binding affinity of each of the prepared analogs was compared with that of interleukin-2 analog 1 (aldesleukin).
(§2) First, an anti-human immunoglobulin antibody (Abcam, #ab97221) was immobilized to a CM5 chip (GE healthcare) to about 5,000 resonance unit (RU) through amine coupling, and then the interleukin-2 alpha receptor ([…], #4102H) or interleukin-2 beta receptor ([…], #4122H), to each of which a human immunoglobulin Fc region was linked, was bound to the immunoglobulin antibody using an antigen-antibody binding reaction and thus finally immobilized. Thereafter, the recombinant interleukin-2 analog prepared above was diluted with HBS-P+ buffer (Cytiva, BR100671) to various concentrations by serial dilution, and the diluted samples were allowed to flow through CM5 chips, to which the interleukin-2 receptors were finally immobilized, to measure the binding affinity of each interleukin-2 receptor. […] Upon the completion of the measurement, the binding affinity of the receptor was evaluated according to the 1:1 binding fitting model in the Biaevaluation program.
On the technique in general: Surface plasmon resonance follows binding to a sensor surface in real time, without labels.

Experiment [2] addresses T2, interleukin-2 alpha receptor (SYMANSIS, #4102H) to which a human immunoglobulin Fc region was linked (UniProt P01589 22-213, limits assumed).
T2 construct: Bought receptor-Fc, captured on anti-human immunoglobulin antibody; also called IL-2Rα; CD25; not shown: human immunoglobulin Fc region
T2 sequence (looked up): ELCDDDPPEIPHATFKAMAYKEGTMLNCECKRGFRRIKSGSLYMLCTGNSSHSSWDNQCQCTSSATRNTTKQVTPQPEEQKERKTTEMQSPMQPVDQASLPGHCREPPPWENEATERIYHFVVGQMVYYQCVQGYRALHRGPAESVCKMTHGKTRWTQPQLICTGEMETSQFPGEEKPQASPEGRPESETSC
Described as above. The protocol:
as §1, §2

B1: interleukin-2 analog 71 (ligand)
chain: PTSSSTKKTQLQLEHLLLDLQMILNGINNYKNPKLTAMLTKKFYMPKKATELKHLQCLEEELKPLEEVLNLAQSKNFHFEPRDVVSNINVFVLELKGSETTFMCEYADETATIVEFLNRWITFSQSIISTLT
B1: the “Relative binding affinity (%)” value in experiment [1] was determined as 17100%.

B2: interleukin-2 analog 73 (ligand)
chain: PTSSSTKKTQLQLEHLLLDLQMILNGINNYKNPKLTAMLTKKFYMPKKATELKHLQCLEEELKPLEEVLNLAQSKNFHFDPRDWVSNINVFVLELKGSETTFMCEYADETATIVEFLNRWITFSQSIISTLT
As for B2, in experiment [1], the “Relative binding affinity (%)” value was found to be 1590%.

B3: interleukin-2 analog 58 (ligand)
chain: PTSSSTKKTQLQLEHLLLDLQMILNGINNYKNPKLTAMLTKKFYMPKKATELKHLQCLEEELKPLEEVLNLAQSKNFHFDPRDAASNINVFVLELKGSETTFMCEYADETATIVEFLNRWITFSQSIISTLT
Turning to B3, the “Relative binding affinity (%)” value in experiment [1] is 7770%.

B4: interleukin-2 analog 84 (ligand)
chain: PTSSSTKKTQLQLEHLRLDLEMILNGINNYKNPKLTRMLTFKFYMPKKATELKHLQCLEEELKPLEEVLNLAQSKNFHVDPRDEVSNINVFVLELKGSETTFMCEYADETATIVEFLNRWITFSQSIISTLT
Consider B4, for which the “Relative binding affinity (%)” value in experiment [1] was determined as 711%.

B5: interleukin-2 analog 41 (ligand)
chain: PTSSSTKKTQLQLEHLLLDLQMILNGINNYKNPKLTRMLTFKFYMPKKATELKHLQCLEEELKPLEEVLNLAQSKNFHFDPRDVVSNINVFVLELKGSETTFMCEYADETATIVEFLNRWITFSQSIISTLT
Turning to B5, the “Relative binding affinity (%)” value stood at 22800% in experiment [1] and 121% in experiment [2].

B6: interleukin-2 analog 34 (ligand)
chain: PTSSSTKKTQLQLEHLLLDLQMILNGINNYKNPKLTAMLTFKFYMPKKATELKHLQCLEEELKPLEEVLNLAQSKNFHFRPRELISNINVIVLELKGSETTFMCEYADETATIVEFLNRWITFSQSIISTLT
On to B6, for which the “Relative binding affinity (%)” value in experiment [1] was found to be 322%; in experiment [2], 9.4%.

B7: interleukin-2 analog 70 (ligand)
chain: PTSSSTKKTQLQLEHLLLDLQMILNGINNYKNPKLTAMLTKKFYMPKKATELKHLQCLEEELKPLEEVLNLAQSKNFHYDPRDVVSNINVFVLELKGSETTFMCEYADETATIVEFLNRWITFSQSIISTLT
As for B7, the “Relative binding affinity (%)” value in experiment [1] is 10200%.

B8: interleukin-2 analog 25 (ligand)
chain: PTSSSTKKTQLQLEHLLFDLQMILNGINNYKNPKLTAMLTKKFYMPKKATELKHLQCLEEELKPLEEVLNLAQSKNFHLRPRDLISNINVIVLELKGSETTFMCEYADETATIVEFLNRWITFSQSIISTLT
Take B8: the “Relative binding affinity (%)” value in experiment [1] is 21.7%.

B9: interleukin-2 analog 14 (ligand)
chain: PTSSSTKKTQLQLEHLLYDLQMILNGINNYKNPKLTAMLTKKFYMPKKATELKHLQCLEEELKPLEEVLNLAQSKNFHLRPRDLISNINVIVLELKGSETTFMCEYADETATIVEFLNRWITFSQSIISTLT
For B9, the “Relative binding affinity (%)” value in experiment [1] turned out to be 130%.

B10: interleukin-2 analog 61 (ligand)
chain: PTSSSTKKTQLQLEHLLLDLQMILNGINNYKNPKLTAMLTKKFYMPKKATELKHLQCLEEELKPLEEVLNLAQSKNFHYDPRDGVSNINVYVLELKGSETTFMCEYADETATIVEFLNRWITFSQSIISTLT
As for B10, the “Relative binding affinity (%)” value in experiment [1] came out at 1040%.

B11: interleukin-2 analog 75 (ligand)
chain: PTSSSTKKTQLQLEHLLLDLQMILNGINNYKNPKLTAMLTKKFAMPKKATELKHLQCLEEELKPLEEVLNLAQSKNFHFEPRDVVSNINVFVLELKGSETTFMCEYADETATIVEFLNRWITFSQSIISTLT
For the molecule B11, in experiment [1], the “Relative binding affinity (%)” value came out at 9570%.

B12: interleukin-2 analog 57 (ligand)
chain: PTSSSTKKTQLQLEHLLLDLQMILNGINNYKNPKLTAMLTKKFAMPKKATELKHLQCLEEELKPLEEVLNLAHSKNFHFDPRDLISNINVFVLELKGSETTFMCEYADETATIVEFLNRWITFSQSIISTLT
Regarding B12, in experiment [1], the “Relative binding affinity (%)” value was 2570%.

B13: interleukin-2 analog 31 (ligand)
chain: PTSSSTKKTQLQLEHLLLDLQMILNGINNYKNPKLTAMLTFKFYMPKKATELKHLQCLEEELKPLEEVLNLAQSKNFHLRPRELISNINVIVLELKGSETTFMCEYADETATIVEFLNRWITFSQSIISTLT
Consider B13, for which the “Relative binding affinity (%)” value in experiment [1] was 236%; in experiment [2] it was 5%.

B14: interleukin-2 analog 55 (ligand)
chain: PTSSSTKKTQLQLEHLLLDLQMILNGINNYKNPKLTAMLTKKFYMPKKATELKHLQCLEEELKPLEEVLNLAHSKNFHFDPRDLISNINVFVLELKGSETTFMCEYADETATIVEFLNRWITFSQSIISTLT
On to B14, for which the “Relative binding affinity (%)” value in experiment [1] stood at 3030%.

B15: interleukin-2 analog 18 (ligand)
chain: PTSSSTKKTQLQLEHLLLDLQMILNGINNYKNPKLTAMLTKKFYMPKKATELKHLQCLEQELKPLEEVLNLAQSKNFHLRPRDLISNINVIVLELKGSETTFMCEYADETATIVEFLNRWITFSQSIISTLT
Turning to B15, in experiment [1], the “Relative binding affinity (%)” value stood at 35.3%.

B16: interleukin-2 analog 13 (ligand)
chain: PTSSSTKKTQLQLEHLLLDLQMILNGINNYKNPKLTAMLTAKFYMPKKATELKHLQCLEEELKPLEEVLNLAQSKNFHLRPRDLISNINVIVLELKGSETTFMCEYADETATIVEFLNRWITFSQSIISTLT
With B16, the “Relative binding affinity (%)” value is 149% in experiment [1] and 1.1% in experiment [2].

B17: interleukin-2 analog 24 (ligand)
chain: PTSSSTKKTQLQLEHLLVDLQMILNGINNYKNPKLTAMLTKKFYMPKKATELKHLQCLEEELKPLEEVLNLAQSKNFHLRPRDLISNINVIVLELKGSETTFMCEYADETATIVEFLNRWITFSQSIISTLT
On to B17, for which the “Relative binding affinity (%)” value in experiment [1] worked out at 37.9%.

B18: interleukin-2 analog 74 (ligand)
chain: PTSSSTKKTQLQLEHLLLDLQMILNGINNYKNPKLTDMLTKKFYMPKKATELKHLQCLEEELKPLEEVLNLAQSKNFHYDPRDVVSNINVFVLELKGSETTFMCEYADETATIVEFLNRWITFSQSIISTLT
For the molecule B18, the “Relative binding affinity (%)” value in experiment [1] was found to be 8150%.

B19: interleukin-2 analog 59 (ligand)
chain: PTSSSTKKTQLQLEHLLLDLQMILNGINNYKNPKLTAMLTKKFYMPKKATELKHLQCLEEELKPLEEVLNLAQSKNFHFDPRDAASNINVYVLELKGSETTFMCEYADETATIVEFLNRWITFSQSIISTLT
With B19, in experiment [1], the “Relative binding affinity (%)” value is 1530%.

B20: interleukin-2 analog 16 (ligand)
chain: PTSSSTKKTQLQLEHLLLDLQMILNGINNYKNPKLTAMLTKKFYMPKKATELKHLQCLEEELKPLEEVLNLAQSKNFHLRPRDLISQINVIVLELKGSETTFMCEYADETATIVEFLNRWITFSQSIISTLT
On to B20, for which the “Relative binding affinity (%)” value in experiment [1] amounted to 1260%; in experiment [2], 0.2%.

B21: interleukin-2 analog 76 (ligand)
chain: PTSSSTKKTQLQLEHLLLDLQMILNGINNYKNPKLTAMLTKQFYMPKKATELKHLQCLERELKPLEEVLNLAQSKNFHFDPRDVGSNINVFVLELKGSETTFMCEYADETATIVEFLNRWITFSQSIISTLT
B21: in experiment [1], the “Relative binding affinity (%)” value is 1040%.

B22: interleukin-2 analog 94 (ligand)
chain: PTSSSTKKTQLQLEHLLLDLQMILNGINNYKNPKLTRMLTFKFYMPKKATELKHLQCLEEELKPLEEVLNLAQSKNFHFEPRDVVSNINVFVFEFKGSETTFMCEYADETATIVEFLNRWITFSQSIISTLT
Take B22: the “Relative binding affinity (%)” value in experiment [1] was 35.5%.

B23: interleukin-2 analog 77 (ligand)
chain: PTSSSTKKTQLQLEHLLLDLQMILNGINNYKNPKLTAMLTKEFYMPKKATELKHLQCLERELKPLEEVLNLAQSKNFHFDPRDWVSNINVFVLELKGSETTFMCEYADETATIVEFLNRWITFSQSIISTLT
In the case of B23, the “Relative binding affinity (%)” value in experiment [1] was 644%.
